Tests used:
mtAR S210A = mtAR S210A (UniProt P10275)
mtAR S790A = mtAR S790A (UniProt P10275)
Sequence of mtAR S790A (P10275 whole entry, looked up, stated change not applied): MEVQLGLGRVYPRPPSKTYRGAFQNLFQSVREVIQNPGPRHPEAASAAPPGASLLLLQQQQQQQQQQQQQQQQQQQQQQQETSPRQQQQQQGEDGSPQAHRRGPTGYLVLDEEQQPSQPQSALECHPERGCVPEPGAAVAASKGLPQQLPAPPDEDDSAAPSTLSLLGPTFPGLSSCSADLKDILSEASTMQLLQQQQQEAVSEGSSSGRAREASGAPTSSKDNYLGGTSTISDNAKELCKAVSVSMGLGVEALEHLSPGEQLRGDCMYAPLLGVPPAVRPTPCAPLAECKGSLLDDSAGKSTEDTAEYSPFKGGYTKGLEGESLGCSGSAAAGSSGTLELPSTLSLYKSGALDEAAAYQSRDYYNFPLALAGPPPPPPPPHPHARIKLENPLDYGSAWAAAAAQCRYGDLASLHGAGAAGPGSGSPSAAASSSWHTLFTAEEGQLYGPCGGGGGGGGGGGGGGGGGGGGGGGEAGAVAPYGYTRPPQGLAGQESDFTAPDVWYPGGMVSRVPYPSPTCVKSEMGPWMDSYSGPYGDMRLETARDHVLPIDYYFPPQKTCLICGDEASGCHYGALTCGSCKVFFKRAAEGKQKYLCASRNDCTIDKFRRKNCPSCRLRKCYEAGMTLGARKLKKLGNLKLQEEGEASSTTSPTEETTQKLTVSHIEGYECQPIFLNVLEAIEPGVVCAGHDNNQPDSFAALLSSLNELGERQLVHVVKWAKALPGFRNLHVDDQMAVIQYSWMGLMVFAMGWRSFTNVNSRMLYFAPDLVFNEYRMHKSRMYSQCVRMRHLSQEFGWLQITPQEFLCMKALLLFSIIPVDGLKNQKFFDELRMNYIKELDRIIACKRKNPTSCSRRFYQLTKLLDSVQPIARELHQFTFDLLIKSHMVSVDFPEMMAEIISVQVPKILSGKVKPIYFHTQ

Sequence of mtAR S210A (P10275 whole entry, looked up, stated change not applied): as above

Q: Akt/PKB (endogenous, LNCaP cells) was tested. Which “in vitro phosphorylation of immunoprecipitated AR by Akt” value (mtAR S210A) did it give?
A: the degree of Akt phosphorylation of mtARS210A and mtARS790A, as compared to wtAR, was reduced significantly

Q: What about the “in vitro phosphorylation of immunoprecipitated AR by Akt/PKB” value (mtAR S210A) of the same substance?
A: the degree of phosphorylation of ARS210A and ARS790A by Akt/PKB, as compared to wtAR, was reduced significantly

Q: What about the “in vitro phosphorylation of immunoprecipitated AR by Akt” value (mtAR S790A) of the same substance?
A: the degree of Akt phosphorylation of mtARS210A and mtARS790A, as compared to wtAR, was reduced significantly

Q: What about the “in vitro phosphorylation of immunoprecipitated AR by Akt/PKB” value (mtAR S790A) of the same substance?
A: the degree of phosphorylation of ARS210A and ARS790A by Akt/PKB, as compared to wtAR, was reduced significantly
